Experimental findings from paper PMC8881100, “Biochemical and Molecular Dynamics Study of a Novel GH 43 α-L-Arabinofuranosidase/β-Xylosidase From Caldicellulosiruptor saccharolyticus DSM8903” (Frontiers in Bioengineering and Biotechnology, 2022) are described below.

Substrate in this data set: O=[N+]([O-])c1ccc(O[C@@H]2O[C@@H](CO)[C@H](O)[C@H]2O)cc1
The experiment in a line: purified protein. In kind it is biochemical, Caldicellulosiruptor saccharolyticus. The conditions noted are these: citric acid phosphate buffer pH 6, 70°C, 0.5 to 3.5 mM substrate.

B1: CAX43 (GH43 α-L-arabinofuranosidase/β-xylosidase) (Caldicellulosiruptor saccharolyticus DSM 8903) (protein)
chain: MIPTLWDPNVDEERYKNPIIHADYSDPDVIRVGSDYFLVASSFNCVPGLPILHSRDLINWKIVNYAVERLPSPEYDTPQIGKGIWAPAIRYHEEKFYIYFSMPDDGIYVCYTDDPFGKWSDIHLVKAAKGWIDPCPFWDEDGNAYLVNAFAKSRIGFNSKLCVSRLSADGLRVLDEGKIVFDGAKTQPTIEGPKLYKRNGYYYIFAPAGGVKFGWQTVLRSKDIYGPYEEKIVLHQGKTKINGPHQGAWVETEKGEHWFVHFQDRGPYGRVVHLQPMRWEDNWPVIGVDIDGDGIGEPVEEYRKPNTNYKNEYDFYLECSDHFDKPQISLQWQWHANPQDNWYSLEKRKSYLRLYAVGNLTNNNKVKSIFFMPNLLLQKIPAPEFIAIVKLEVNFNKEGSYAGIIMSGSRYSSIGIKRGQKKLSLVQVLGDVKEDVIENTVAKMPIETSQVFLKISVKEGAVCKFSFSFDGKKFTDFGTEFIPQEAIWVGSKIGLFCINTSGKNGVIQSDYADFDYFKIENFRKEDEC
notes: C-terminal His6 tag; pEASY blunt E2, E. coli BL21 (C43); Ni-NTA purified
A word on the Km: it is the concentration of substrate that gives half-maximal velocity. What is called kcat is the maximal rate divided by the concentration of active sites. In the case of B1, the Michaelis constant (Km) was found to be 1071 µM and the turnover number (kcat) came out at 234.674 s⁻¹.
